Laboratory results: paper doi:10.1101/2022.08.08.502946 (bioRxiv, 2022)

B1: NaKΔ18 C-DI (domain or fragment, Bacillus cereus, UniProt Q81HW2 19-114, looked up)
chain: WKDKEFQVLFVLTILTLISGTIFYSTVEGLRPIDALYFSVVTLTTVGCDISPQTDFGKIFTILYIFIGIGLVFGFIHKLAVNVQLPSILSNRKKE
B2: NaKΔ18 C-DI F92A (domain or fragment, Bacillus cereus, UniProt Q81HW2 19-114, looked up)
chain: WKDKEFQVLFVLTILTLISGTIFYSTVEGLRPIDALYFSVVTLTTVGCDISPQTDFGKIFTILYIFIGIGLVAGFIHKLAVNVQLPSILSNRKKE
B3: NaKΔ18 S-DI (domain or fragment, Bacillus cereus, UniProt Q81HW2 19-114, looked up)
chain: WKDKEFQVLFVLTILTLISGTIFYSTVEGLRPIDALYFSVVTLTTVGSDISPQTDFGKIFTILYIFIGIGLVFGFIHKLAVNVQLPSILSNRKKE

Tests used:
[1] = target: NaKΔ18 S-ELM (Bacillus cereus) (UniProt Q81HW2); assay: crystal structure
[2] = target: the molecule itself; assay: crystal structure

Row | Molecule | stoichiometry N [1] | stoichiometry N [2]
1 | NaKΔ18 S-ELM (from UniProt Q81HW2 19-114) (domain or fragment) | 4 | 
2 | B1 |  | 4
3 | B2 |  | 4
4 | B3 |  | 4
